From PMC2542413 come the findings set out here.

Test [1] has as its target soluble human 4-domain CD4 (human). The test can be described thus: ELISA; CD4 solution competition assay: Env trimers co-incubated with 2, 4 or 9 nM sCD4 in PBS at room temperature for 1 h; non-Env-bound sCD4 captured on plate-bound anti-CD4 RPA-T4 and detected with biotin-OKT-4.
For test [2], the target named is YU2 gp140-F trimers (HIV-1 (primary isolate YU2) | not stated). As to the kind of experiment: SEC; gel filtration on a Superdex 200 26/60 prep grade column; trimers separated from lower molecular weight forms.

With YU2 gp140-F trimers, in test [1], the half-maximal binding (with 2 nM sCD4) was determined as 7 nM, the half-maximal binding (with 4 nM sCD4) stood at 13 nM and the half-maximal binding (with 9 nM sCD4) amounted to 26 nM. Also, in test [2], the stoichiometry N is 3.
